Assay results published in paper PMC10757996.

Columns and labels:
[1] = molecular target: Arginylglycylaspartic acid (RGD) peptide grafted on poly-L-lysine-graft-poly(ethylene glycol) (PLL-g-PEG/PEG-RGD); experiment: SPR; Goos-Hänchen lateral position shift read-out on a silver-GST plasmonic substrate; PLL-PEG-RGD immobilised on the GST layer through MPTES; 10 μg/mL integrin proteoliposomes flowed over; running buffer 1:10 dilution of PBS; highest Mn2+ concentration of the series (1 mM); exponential fits of association and dissociation
[2] = molecular target: Arginylglycylaspartic acid (RGD) peptide grafted on poly-L-lysine-graft-poly(ethylene glycol) (PLL-g-PEG/PEG-RGD); experiment: SPR; Goos-Hänchen lateral position shift read-out on a silver-GST plasmonic substrate; PLL-PEG-RGD immobilised on the GST layer through MPTES; 10 μg/mL integrin proteoliposomes flowed over; running buffer 1:10 dilution of PBS; lowest Mn2+ concentration of the series (1 nM); exponential fits of association and dissociation

Substance “αIIbβ3 integrin reconstituted into liposomes (integrin-embedded proteoliposomes) (from UniProt P08514 32-1039; P05106 27-788) (complex)” has a kobs [1] of 0.146 min⁻¹, a koff [1] of 0.00448 s⁻¹ and a kobs [2] of 0.101 min⁻¹. The koff [2] was 0.00957 s⁻¹.
